Measured values as given in patent publication US20250382355A1 (Merck Sharp & Dohme, published 2025).

B1: 1E4 VHH-Fc (Fc fusion)
chain: QVLLVESGGGLVQAGGLLRLACSASGRTFTENVMGWFRQAPGKEREFVAAINWNTGSTYYSDSRKGRFTISKDNAKNTMFLQINNLKPEDTAVYYCGGTSSSYYYIGEFIPDYWGQGTQVTVSS
B2: 10B8 VHH-Fc (Fc fusion)
chain: QVQLVESGGGLVQPGGSLRLSCAASGITLDYYAIAWFRQAPGKEREGVSCFCSSDGDIRYADSVKGRFTISRDNAKNTVYLQMNSLKPEDTAVYYCATERVYSSTWFFHRYSELDFGSWGRGTQVTVSS
B3: 6A1 VHH-Fc (Fc fusion)
chain: QVQLVESGGGLVQAGGSLRLSCTASGNIFSVNVMGWHRQAPGKRRELVAALTNDGRRNYADSVKGRFTISRDNAKNTIYLEMNSLKPEDTAVYYCGTGTLESGFNSWGQGLQVTVSS

Tests used:
[1] = target: spike protein of authentic SARS-CoV-2 virus (SARS-CoV-2, UniProt P0DTC2 14-1273); assay: cell-based or functional assay
[2] = target: spike protein of authentic SARS-CoV/Urbani virus (SARS-CoV, UniProt P59594 14-1255); assay: cell-based or functional assay
[3] = target: T1, SARS-CoV-2 spike protein on recombinant CHO K1 cells (SARS-CoV-2, UniProt P0DTC2 14-1273); assay: FACS on CHO K1 cells
T1 construct: whole, on cells

[4] = target: T2, MERS spike protein on recombinant CHO K1 cells (MERS-CoV, UniProt K9N5Q8 18-1353); assay: FACS on CHO K1 cells
T2 sequence: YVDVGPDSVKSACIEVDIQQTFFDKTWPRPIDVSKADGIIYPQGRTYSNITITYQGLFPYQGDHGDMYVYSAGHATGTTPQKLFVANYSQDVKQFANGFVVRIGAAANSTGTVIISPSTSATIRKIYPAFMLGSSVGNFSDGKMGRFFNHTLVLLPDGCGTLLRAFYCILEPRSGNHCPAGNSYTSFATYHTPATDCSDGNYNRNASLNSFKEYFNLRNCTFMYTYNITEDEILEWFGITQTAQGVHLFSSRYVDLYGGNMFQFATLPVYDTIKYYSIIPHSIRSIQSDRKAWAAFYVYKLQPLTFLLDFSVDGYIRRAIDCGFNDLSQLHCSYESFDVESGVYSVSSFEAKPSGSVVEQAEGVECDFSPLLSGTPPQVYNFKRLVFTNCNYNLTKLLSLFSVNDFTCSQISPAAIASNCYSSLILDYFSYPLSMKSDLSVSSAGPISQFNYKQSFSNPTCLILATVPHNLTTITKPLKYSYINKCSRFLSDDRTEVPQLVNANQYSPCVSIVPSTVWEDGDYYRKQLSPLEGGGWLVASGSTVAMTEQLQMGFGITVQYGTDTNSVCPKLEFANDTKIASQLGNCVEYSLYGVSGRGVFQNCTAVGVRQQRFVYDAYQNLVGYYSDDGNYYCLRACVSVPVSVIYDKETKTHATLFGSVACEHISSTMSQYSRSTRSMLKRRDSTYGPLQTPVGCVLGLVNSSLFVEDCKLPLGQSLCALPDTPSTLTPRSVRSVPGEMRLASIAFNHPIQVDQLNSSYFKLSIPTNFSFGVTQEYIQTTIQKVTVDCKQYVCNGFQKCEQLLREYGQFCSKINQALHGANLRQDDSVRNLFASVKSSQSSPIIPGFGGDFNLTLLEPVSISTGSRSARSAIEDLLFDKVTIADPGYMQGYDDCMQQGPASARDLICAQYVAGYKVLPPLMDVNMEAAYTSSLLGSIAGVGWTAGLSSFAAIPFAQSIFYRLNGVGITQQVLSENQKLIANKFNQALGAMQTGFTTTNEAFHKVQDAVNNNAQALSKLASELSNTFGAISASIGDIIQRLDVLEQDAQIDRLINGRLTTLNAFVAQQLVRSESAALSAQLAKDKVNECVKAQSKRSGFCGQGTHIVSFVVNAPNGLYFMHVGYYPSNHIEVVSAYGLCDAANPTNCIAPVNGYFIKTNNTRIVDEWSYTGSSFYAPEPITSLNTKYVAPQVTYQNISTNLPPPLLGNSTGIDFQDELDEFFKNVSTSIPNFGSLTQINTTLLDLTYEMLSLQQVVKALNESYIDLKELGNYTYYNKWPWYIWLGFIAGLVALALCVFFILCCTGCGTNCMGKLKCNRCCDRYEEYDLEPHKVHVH

[5] = target: SARS-CoV spike on rVSV-deltaG-Luc pseudovirus (SARS-CoV, UniProt P59594 14-1236); assay: cell-based or functional assay
[6] = target: SARS-CoV spike protein on recombinant CHO K1 cells (SARS-CoV, UniProt P59594 14-1255); assay: FACS on CHO K1 cells
OC43 spike protein = target: T3, OC43 spike protein (human coronavirus OC43, UniProt P36334 14-1278); assay: ELISA
T3 sequence: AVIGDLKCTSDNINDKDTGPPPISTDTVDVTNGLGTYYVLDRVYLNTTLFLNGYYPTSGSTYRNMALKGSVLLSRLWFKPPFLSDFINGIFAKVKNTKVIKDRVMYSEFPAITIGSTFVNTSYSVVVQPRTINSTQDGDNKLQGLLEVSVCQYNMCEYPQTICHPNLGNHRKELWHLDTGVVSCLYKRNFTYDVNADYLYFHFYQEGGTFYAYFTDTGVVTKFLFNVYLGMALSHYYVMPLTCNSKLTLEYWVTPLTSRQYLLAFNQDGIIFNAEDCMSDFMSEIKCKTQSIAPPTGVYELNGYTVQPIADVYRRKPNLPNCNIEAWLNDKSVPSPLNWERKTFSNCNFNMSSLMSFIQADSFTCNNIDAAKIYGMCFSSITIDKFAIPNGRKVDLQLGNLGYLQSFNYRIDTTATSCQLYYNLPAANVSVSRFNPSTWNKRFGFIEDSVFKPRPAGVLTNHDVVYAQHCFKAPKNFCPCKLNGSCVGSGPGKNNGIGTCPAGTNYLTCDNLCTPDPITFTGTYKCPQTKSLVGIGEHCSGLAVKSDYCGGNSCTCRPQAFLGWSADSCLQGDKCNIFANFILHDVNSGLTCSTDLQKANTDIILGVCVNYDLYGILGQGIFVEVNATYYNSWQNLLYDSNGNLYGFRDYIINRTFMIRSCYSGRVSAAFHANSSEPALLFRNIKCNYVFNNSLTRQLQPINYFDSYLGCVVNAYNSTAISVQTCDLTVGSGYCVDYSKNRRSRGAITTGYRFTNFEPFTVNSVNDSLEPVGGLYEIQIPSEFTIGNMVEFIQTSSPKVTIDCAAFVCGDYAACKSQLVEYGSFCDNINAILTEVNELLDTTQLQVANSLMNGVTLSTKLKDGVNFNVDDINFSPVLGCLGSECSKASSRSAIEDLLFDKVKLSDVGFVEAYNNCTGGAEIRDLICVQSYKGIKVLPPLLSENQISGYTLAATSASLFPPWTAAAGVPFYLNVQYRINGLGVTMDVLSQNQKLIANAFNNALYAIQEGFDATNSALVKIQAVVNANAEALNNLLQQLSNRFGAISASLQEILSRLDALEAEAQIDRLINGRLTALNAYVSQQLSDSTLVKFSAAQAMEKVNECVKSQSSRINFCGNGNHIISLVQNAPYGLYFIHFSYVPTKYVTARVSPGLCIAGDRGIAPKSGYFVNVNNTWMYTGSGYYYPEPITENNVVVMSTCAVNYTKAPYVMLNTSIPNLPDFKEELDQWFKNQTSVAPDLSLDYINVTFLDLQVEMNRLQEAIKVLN

Row | Binder | authentic virus neutralization IC50 [1] | authentic virus neutralization IC50 [2] | EC50 [3] | binding result [4] | pseudovirus neutralization IC50 [5] | EC50 [6] | EC50 [4] | EC50 (OC43 spike protein)
1 | B1 | 200 pM | 50 pM | 60 pM | no binding | 60 pM |  |  | 
2 | B2 | 300 pM | 40 pM | 190 pM | no binding | 90 pM | 140 pM |  | 
3 | B3 |  |  | 140 pM |  |  |  | 130 pM | 80 pM
